Experimental data as given in patent publication US20190321478A1 (IMMATICS BIOTECHNOLOGIES, published 2019).

Target: HLA-A*02-presented MAGEA1-003 (on target cells) (human)
Assay: cell-based or functional assay

Binder	EC50 of IFNγ release, T2 cells loaded with titrated MAGEA1-003 peptide
TCR R42P3A9 (TCR, V domains shown) V domain 1: GIQVEQSPPDLILQEGANSTLRCNFSDSVNNLQWFHQNPWGQLINLFYIPSGTKQNGRLSATTVATERYSLLYISSSQTTDSGVYFCAVHNFNKFYFGSGTKLNVKP V domain 2: AAGVIQSPRHLIKEKRETATLKCYPIPRHDTVYWYQQGPGQDPQFLISFYEKMQSDKGSIPDRFSAQQFSDYHSELNMSSLELGDSALYFCASSLLGQGYNEQFFGPGTRLTVLE	823 nM
TCR R59P2E7 (TCR, V domains shown) V domain 1: KQEVTQIPAALSVPEGENLVLNCSFTDSAIYNLQWFRQDPGKGLTSLLLIQSSQREQTSGRLNASLDKSSGRSTLYIAASQPGDSATYLCAVNSDYKLSFGAGTTVTVRA V domain 2: AAGVIQSPRHLIKEKRETATLKCYPIPRHDTVYWYQQGPGQDPQFLISFYEKMQSDKGSIPDRFSAQQFSDYHSELNMSSLELGDSALYFCASSLGLGTGDYGYTFGSGTRLTVVE	386 nM

Now from value to binder:

EC50 of IFNγ release, T2 cells loaded with titrated MAGEA1-003 peptide	Binder
26 nM	TCR R37P1H1 (TCR, V domains shown) V domain 1: AQTVTQSQPEMSVQEAETVTLSCTYDTSESNYYLFWYKQPPSRQMILVIRQEAYKQQNATENRFSVNFQKAAKSFSLKISDSQLGDTAMYFCAFGYSGGGADGLTFGKGTHLIIQP V domain 2: DAGVTQSPTHLIKTRGQQVTLRCSPKSGHDTVSWYQQALGQGPQFIFQYYEEEERQRGNFPDRFSGHQFPNYSSELNVNALLLGDSALYLCASSNEGQGWEAEAFFGQGTRLTVVE
100 nM	TCR R26P2A6 (TCR, V domains shown) V domain 1: QKEVEQDPGPLSVPEGAIVSLNCTYSNSAFQYFMWYRQYSRKGPELLMYTYSSGNKEDGRFTAQVDKSSKYISLFIRDSQPSDSATYLCAMSDVSGGYNKLIFGAGTRLAVHP V domain 2: EAQVTQNPRYLITVTGKKLTVTCSQNMNHEYMSWYRQDPGLGLRQIYYSMNVEVTDKGDVPEGYKVSRKEKRNFPLILESPSPNQTSLYFCASTTPDGTDEQFFGPGTRLTVLE
6 nM	TCR R26P1A9 (TCR, V domains shown) V domain 1: SQQGEEDPQALSIQEGENATMNCSYKTSINNLQWYRQNSGRGLVHLILIRSNEREKHSGRLRVTLDTSKKSSSLLITASRAADTASYFCLIGASGSRLTFGEGTQLTVNP V domain 2: DAGVIQSPRHEVTEMGQEVTLRCKPISGHDYLFWYRQTMMRGLELLIYFNNNVPIDDSGMPEDRFSAKMPNASFSTLKIQPSEPRDSAVYFCASSYFGWNEKLFFGSGTQLSVLE
